Ki data for one substance are collected here from patent US20140094415A1.

The target of the experiment is HIS-PDZ1-2 protein (PSD-95 PDZ1-2 tandem) (human) (UniProt P78352). Put plainly: fluorescence polarization, heterologous competition against AB143 probe.

What is called Ki is a measure of affinity in units of concentration, obtained from inhibition or displacement. Substance Tat-NR2B9c (peptide) gave a Ki of 4.6 µM.
